Assay: yeast display, Sf9 membrane polyspecificity reagent, FACS + sequencing; frameworks hold sequencing errors
How it was run: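 Genes from sorted yeast were amplified by colony PCR, read by MiSeq 2 × 250 sequencing and filtered on CDR length. These cells carried a synthetic nanobody library in Saccharomyces cerevisiae BJ5465 and were sorted by FACS into low and high (top ~1%) gates on anti-HA and streptavidin fluorescence. Polyreactivity is labelled according to the gate of origin.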

Row | Sequence | polyreactivity (PSR sort gate)
1 | QVQLLESGGGLVQAGGSLRLSCAASGLTFNTYAMGWYIQAPGKERELVAAISRGGGSTYYADSVKGRFTISRDNAKNTVYLQMNSLKPEDTAVYYCNAEKRASYLLYDYWGQGTQVTVSS | high polyreactivity
2 | QVQLVESGGGLVQAGGSLRLSCAASGRIFGYYGRGWYRQAPGKERELVARISGRGGSTYYADSVKGRFTLSRDNAKNTVYLQINSLKPEDTAVYYCNVVFSFWQYYAYDQGDYWGQGTQVTVSS | low polyreactivity
3 | QVQLVESGGGLVQAGGSLRLSCAASRSIFLYYAMGWYRQAPGKERELVAAISYSGSGTYADSVKGRFTISRDNAKNTVYLQMNSLKPEDTAVSYCNVDYGSNSYDYWGQGTQVTVSS | low polyreactivity
4 | QVQLVESGGGLVQAGGSLRLSCAASGSTFYSNVMGWYRQAPGKERELVAAISRSGGSTYYADSVKGRFTISRDNAKNTVYLQMNSLKPEDTAVYYCAARTYRRPYYSWGQGTQVTVSS | high polyreactivity
5 | QVQLVESGGGLVQAGGSLRLSCAASGSIFQWNAMGWYRQAPGKERELVAAISTRGGRTYYADSVKGRFTISRDNAKNTDYLQMNSLKPEDTAVYYCAKQYGSYGRYYKYYYWGQGTQVTVSS | high polyreactivity
6 | QVQLGESGGGLVQAGGSLRLSCAASGLTFYLYVMGWYRQAPGTERELVAAISRRGGSTYYADSVKGRFTISRDNAKNTVYLQMNSLNPEDTAVYYCAASVYGTYRGIQYGYWGQGTQVTVSS | high polyreactivity
7 | QVQLVESGGGLVQAGGSLRLSCAASGRIFHNNAMGWYIQAPGKERELVAAISTGGSTNYADSVKGRFTISRDNAKNTVYLQMNSLKPEDTAVYYCAADHPVTYPTSKFDYWGQGTQVTVSS | low polyreactivity
8 | QVQLVESGVGLVQAGRSLRLSCAASGRTFVQYAMGWYRQAPGKERELVARISRRGGSTYYADSVKGRFTISRDKAKNSVYLQMNSLKPEDTAVYYFAADAYPYWYDYWGQGTQVTVSS | high polyreactivity
9 | QVQLVESGGGLVQAGGSLRLSCAASGTFYKYSMGWYRQAPGKERELVAAISWRGGRTYADSVKGRFTISRDNAKNTVYLQMNSLKPEDTAVYYCNKRFYPEHYYWGQGTQVTVSS | high polyreactivity
10 | QVLLQESGGGLVQAGVSLRLCCAASGYISGDQFMGWYRQAPGKEREFVAGIGNGTNTNYADSVKGRFTTSRDNAKNTVYLQMNSLKQEDTAVYYCAADPSDGSTLAYWGHGTQVTVSS | high polyreactivity
11 | QVQLVESGGGLDQAGGSLRLSCAASGSISVWYVMGWYRQAPGKERELVAAITRSGGSTFYADSLKGRFTISRDNAKNTVYLQMNSLKPEDTAVYYCASDGGVAWGYGDWGQGTQVTVSS | low polyreactivity
12 | QVQLVESGGGLVQAGGSLRLSCAASGRTFPAYAMGWYRQAPGKERELVARISYSGGNTYYADSVKGRFTISRDNAKNTVYLQMNSLKPEDTAVYYCAATRSHYPYRSGGDYWGQGTQVTVSS | low polyreactivity
13 | QVQLVESGGGLVQAGGSLRLSCAASGRIFQLYTMGWYIQAPGKERELVAAITSGTSTSYADSVKGRFTISRDNAKNTVYLQMNSLKPEDTAVYYCNKGSVSYSSVFVPYESDYWGQGTQVTVSS | low polyreactivity
14 | QVQLVESGGGLVQAGGSLRLSCAASGSISGYYDMGWYRQAPGKERELVAASSWNGADTYYADSVKGRFTISRDNAKNTVYLQMNSLKPEDTAVYYCAAERENGDHYRYYYWGQGTQVNVSS | low polyreactivity
15 | QVQLVESGGGLVQAGGSLRLSCAASGSIFYSYAMGWYRQAPGKERELVATITRRGGSTYYADSVKGRFTISRDNAKNTVYLQMNSLKPEDTAVYYCAVKPVRYAYRIYDLRFEYWGQGTQVTVSS | high polyreactivity
16 | QVQLVESGGGLVQAGGSLRLSCAASGRIFTINAMGWYRQAPGKERELVAAISNSGGRTYADSVKGRFTISRDNAKNTVYLLMNSLKAEDTAVYYCAKRYRFHFWGQGTQVTVSS | low polyreactivity
17 | QVQLVESGGGLVQAGGSLRISCAASGSIFVTNAMGWYRQAPGKERELVAAISSGGNTNYADSVKGLFTISRDNAKNTVYLQMNSLKPEDTAVYYCAKDPDKVDYVDMDYWGQGTQVTVSS | low polyreactivity
18 | QVQLVESGGGLVQAGGSLRLSCAASGRIFGGYAMGWYRPAPGKERELVAAISWRGGTTYYADSVKGRFTISRDNAKNTVYLQMNSLKPEDTAVYYCNADVVRYRHWHRGDYWGQGTQVTVSS | low polyreactivity
19 | QVQLVESGGGLVQAGGSLRLSCAASGITFGDNVKGWYRQAPGKERELVAAISRIGDDTYYADSVKGRFTISRDNAKNTVYLQMNSLKPEDTAVYYCAAEYIYYIWSSYIDWDYYWVQGTQVTVSS | low polyreactivity
20 | QVQLVESGGGLVQAGGSLRLSCAASGRIFTKYAMGWYRQSPGKERELVAAITTSGGSTYYADSVKGRFTISRDNAKNTVYLQMNSLKPEDTAVYYCAARTYHRYDYWGQGTQVTVSS | high polyreactivity
21 | QVQLVESGGGLVQAGGSLRLSCAASGSIFGAYTMRWYRQAPGKERELVAAITGGGITNYADSVKGRFTISRDNAKNTVYLQMNSLKPEDTAVYYCNAGYPPQTVVVGYDYWGQGTQVTVSS | low polyreactivity
22 | QVQLVESGGGLVQAGGSLRLSCAASGSIVRSYAMGWYRQAPGKERELVASITDGTITNYADSVKGRFTISRDNAKNTVYLQMISLKPDDTAVYYCAAGTLAHAYVVRPIEMDYWGQGTQVTVSS | low polyreactivity

Row | Sequence | polyreactivity (PSR sort gate)
23 | QVQHVESGGGLVQAGGSLRLSCAASGSTLSRYVMGWDRQAPGKERELVASISWTGTRTYYADSVKGRFTISRDNAKNTVYLQMNSLKPEDTAVYYCNAVSRGGRLYDYWGQGTQVTVSS | high polyreactivity
24 | QVQRVESGGGLVQAGGSLRLSCAASGSIFPSNTMGWYRQAPGKERELVAAISGSGTRTYYADSVKGRFTISRDNAKNTVYLQMNSLKPEDTAVYYCAADVDYWGQGTQVTVSS | low polyreactivity
25 | QVQLVESGGGLVQAGGSLRLSCAASGRISFRYAMGWYRQAPGKERELVAAINRGGITNYADSVKGRFTISRDNAKNTVYLQMNSLKPEDTAVYYCAARYASPRYKSKMDYWGQGTQVTVSS | high polyreactivity
26 | QVQLLESGGGLVQAGVSLRLSCSASGFTFGRYAMGCYRQAHGKERELVAGITWSGGSTSYADSVKGRFTISRDNAKNTVYLQMNSLKPEDTAVYYCATRARYTRVHGRRYAYDYWGQGTQVTVSS | high polyreactivity
27 | QVQLVESGGGLVQAGGSLRLSCAASGRTFGYNAMGWYRQAPGKVRELVAAITSGGSTYYADSVKGRFTISRDNAKNTVYLQMNSLKPEDTAVYYCNARYPGFWSGWEEYWGQGTQVTVSS | high polyreactivity
28 | QVQLVESGGGLVQAGGSLRLSCAASGSTFAVNVMGWYRQAPGKERELVATITYRDGRTYYADSVKGRFTISRDNAKNTVYLQMNSLKPEDTAVYYCAADDEYKQEAEMDSWGQGTLVTVSS | low polyreactivity
29 | QVQLVESAGCLVQAGASLRLSCAASGRIISRNAMGWYRQAPGKERELVAAITWRGGSTYYADSVKGRFTISRDNAKNTVYLQMNSLKPEDTAVYYCNRDYRQYGYAYSGRYYWGQGTQVTVSS | high polyreactivity
30 | QVQLVESGGGLVQAGGSLRLSCAASGITFADYVMGWYRPAPGKERELVAAISTDGGSTYYADSVKGRFTISRDNAKNTVYLQMNSLKPEDTAVYYCASEWSYPGYEFDYWGQGTQVTVSS | high polyreactivity
31 | QDQLVESGGGLVHAGGSLRLSCAASGSTFSIYAMGWYRQAPGKERELVAAIPYSGGSTYYADSVKGRFTISRDNAKNTVYLQMHSLKPEDTAVNYCAAEVYDSRWWYSGATDDYWGQGTQVSVSS | high polyreactivity
32 | QVQLVESGGGLVQAGGSLRLSCAASGSIFSLNAMGWYRQAPGKERELVAVINRSGTRTYYADSVKGRFTISRDNAKNTVYLQINSLKPEVTAVYYCNAEPSSGSDAQNEYWGQGTQVTVSS | high polyreactivity
33 | QVQLQESGGGLVQAGGSLRLSCAASGVIFARNYMGWYRQAPGKERELVAGIGVGASTNYADSVKGRFTISRDNAKNTVYLQMNRLEPEDTAVYYCAVVDTVLGYHYYWGQGTQVTVSN | low polyreactivity
34 | QVQLVESGGGLVQAGGSLRLSCAASGRIFLYNGMGWYRQAPGKERELVAGITTGGNTNYADSVKGRFTISRDNAKNTVYLQMNSLKPEDTAVYYCAAEVIVYGWSPDYDYWGQGTQVTVSS | low polyreactivity
35 | QVQLVESGGGLVQAGGSLRLSCAASGIIIWGNAMAWYRQAPGKERELVAAISSSSGSTYYADSVKGRFTISRDNAKNTVYLQMNRLKPVDTAVYYCAVDTPRSYRAQGAYYYWGQGTQVTVSS | low polyreactivity
36 | QVQLVESGGGLVQAGGSLRLSCAPSGRTVRYNAMGWYRQAPGKERELVARITWSGGRTYYADSVKGRFTISRDNAKNTVYLQMNSLKPEDTAVNYGNAPSIAGYAEYNSHDYWGQGTQVTVSS | high polyreactivity
37 | QVQLVESGGGLVQAGGSLRLSCAASGYTFTIYAMGWYRQAPGKQRELVAAITGRGGRTNYADSVKGRFTISRDNAKNTVYLQMNSLKPEDTAVYYCNAVTKVVYHGPYGYDYWGQGTQVTVSS | high polyreactivity
38 | QVQLVESGGGLVQAGGSLRLSCAASGRTFSANAMGWYRQAPGKDRELVAANRRTGGRTYYADSVKGRFTISRDNAKNTDYLQMNSLKPEDTAVYYCKAVNKPYTREYGYDYWGQGTQGTVSS | high polyreactivity
39 | QVQLVESGGGLVQAGGSLRLSCAASGRTFCGNVMGWYRQAPGKERELVAAITNGASTNYADSVKGRFTISRDNAKNTVYLQMNSLKPEDTAVYYCAASANNWRRRGRSYEYWGQGTQVTVSS | low polyreactivity
40 | QVQLVESGGGLVQAGGSLRLSCAASGLISRRNAMGWYRQAPGKERELVAAISTGSSTNYADSVKGRFTISRDNAKNTVYLQMNSLKPEDTAVYYCAATQYWWSTLGIRDDYWGQGSQVTVSS | low polyreactivity
41 | QVQLVESGGGLVQAGGSLRLSCAASGNTFHTNAMGWYRQAPGKERELVAAITGGGSTYYADSVKGRFTISRDNAKNTVYLQMNSLKPEDTAVYYCNTDVPYGLDVSDTIDYYYWGQGTQVTVSS | low polyreactivity
42 | QVQLVESGGGLVQAGGSLRLSCAASGFTFRYYVMGWYRQAPGIERELVAAISWSGGSTYYADSVKGRFTISRDNAKYTVYLQMNSLNPEDTAVYYCNAASLSKSDYWGQGTQVTVSS | high polyreactivity
43 | QVQLVESGGGLVQAGGSLRLSCAASGNTFNAFNAMGWYRQAPGKERELVAAISRRGGSTYYADSVKGRFTISRDNAKNTVYLQMNSLKPEDTAVYYGAAYYSRSKYDYWGQGTQVTVSS | high polyreactivity
